For 94 variants, protein stability index results are on record in the supplement of paper PMC10567573.

The chains are these.
B1: SASS6 (parent)
chain: QKELQDVGQSLRIKEQEVCKLQEQ
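Note: lentivirally expressed fusions sorted by FACS into six bins by GFP to DsRed ratio, PSI derived from sequencing read proportions per bin multiplied by bin number.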

The variants in this data set derive from B1. The experiment in a line: protein stability index of a GFP-peptide fusion (GPS, HEK-293T) (PSI 1-6); higher = more stable. The conditions noted are these: c terminus: a fixed tail appended.
For QKELQDVGQSLRIKEQEVCKEQEQ, the protein stability index was found to be 5.78.
Turning to QKELQDVGQSLRIKEQEVCKIQEQ, the protein stability index is 5.43.
Consider QKELQDVGQSLRIKEQEVCKQQEQ, for which the protein stability index was 5.42.
With QKELQDVGQSLRIKEQEVCKNQEQ, the protein stability index stood at 5.68.
For the variant QKELQDVGQSLRIKEQEVCKHQEQ, the protein stability index was 5.57.
QKELQDVGQSLRIKEQEVCKSQEQ: the protein stability index was found to be 5.27.
For the variant QKELQDVGQSLRIKEQEVCKKQEQ, the protein stability index was 5.81.
As for QKELQDVGQSLRIKEQEVCKMQEQ, the protein stability index came out at 5.03.
On to QKELQDVGQSLRIKEQEVCKAQEQ, for which the protein stability index is 5.02.
Take QKELQDVGQSLRIKEQEVCKWQEQ: the protein stability index is 4.92.
Regarding QKELQDVGQSLRIKEQEVCKTQEQ, the protein stability index was 5.68.
The result for QKELQDVGQSLRIKEQEVCKGQEQ reads 5.9; that for QKELQDVGQSLRIKEQEVCKFQEQ, 5.14; that for QKELQDVGQSLRIKEQEVCKCQEQ, 5.73.
Turning to QKELQDVGQSLRIKEQEVCKYQEQ, the protein stability index amounted to 5.38.
As for QKELQDVGQSLRIKEQEVCKDQEQ, the protein stability index is 5.84.
Regarding QKELQDVGQSLRIKEQEVCKPQEQ, the protein stability index is 5.4.
Consider QKELQDVGQSLRIKEQEVCLLQEQ, for which the protein stability index was found to be 5.02.
As for QKELQDVGQSLRIKEQEVCVLQEQ, the protein stability index is 5.26.
Turning to QKELQDVGQSLRIKEQEVCMLQEQ, the protein stability index stood at 5.24.
For QKELQDVGQSLRIKEQEVCCLQEQ, the protein stability index worked out at 5.11.
The result for QKELQDVGQSLRIKEQEVCTLQEQ reads 5.09; that for QKELQDVGQSLRIKEQEVCSLQEQ, 5.55.
With QKELQDVGQSLRIKEQEVCHLQEQ, the protein stability index came out at 4.49.
Take QKELQDVGQSLRIKEQEVCFLQEQ: the protein stability index came out at 4.31.
The result for QKELQDVGQSLRIKEQEVCYLQEQ reads 4.66; that for QKELQDVGQSLRIKEQEVCGLQEQ, 5.36.
For the variant QKELQDVGQSLRIKEQEVCNLQEQ, the protein stability index was 5.12.
As to QKELQDVGQSLRIKEQEVCRLQEQ, the protein stability index was 4.82.
Under QKELQDVGQSLRIKEQEVCPLQEQ stands 4.98; under QKELQDVGQSLRIKEQEVCILQEQ, 5.15; under QKELQDVGQSLRIKEQEDCKLQEQ, 5.94.
Take QKELQDVGQSLRIKEQEQCKLQEQ: the protein stability index stood at 5.54.
Consider QKELQDVGQSLRIKEQEYCKLQEQ, for which the protein stability index amounted to 5.03.
Under QKELQDVGQSLRIKEQEMCKLQEQ stands 5.46.
Regarding QKELQDVGQSLRIKEQENCKLQEQ, the protein stability index is 5.19.
The result for QKELQDVGQSLRIKEQEKCKLQEQ reads 5.32.
On to QKELQDVGQSLRIKEQETCKLQEQ, for which the protein stability index came to 4.74.
QKELQDVGQSLRIKEQERCKLQEQ: the protein stability index amounted to 5.62.
With QKELQDVGQSLRIKEQEPCKLQEQ, the protein stability index turned out to be 3.51.
As to QKELQDVGQSLRIKEQEECKLQEQ, the protein stability index turned out to be 5.95.
Take QKELQDVGQSLRIKEQESCKLQEQ: the protein stability index came to 5.35.
As for QKELQDVGQSLRIKEQEHCKLQEQ, the protein stability index is 5.11.
As to QKELQDVGQSLRIKEQEICKLQEQ, the protein stability index is 4.75.
With QKELQDVGQSLRIKEQELCKLQEQ, the protein stability index worked out at 5.25.
On to QKELQDVGQSLRIKEQEGCKLQEQ, for which the protein stability index came to 4.49.
Take QKELQDVGQSLRIKEQEACKLQEQ: the protein stability index came to 4.16.
Under QKELQDVGQSLRIKEQEFCKLQEQ stands 4.5.
Regarding QKELQDVGQSLRIKEQEWCKLQEQ, the protein stability index is 4.28.
For the variant QKELQDVGQSLRIKEQGVCKLQEQ, the protein stability index stood at 4.96.
As to QKELQDVGQSLRIKEQIVCKLQEQ, the protein stability index is 4.28.
The result for QKELQDVGQSLRIKEQYVCKLQEQ reads 4.22; that for QKELQDVGQSLRIKEQPVCKLQEQ, 4.55.
Turning to QKELQDVGQSLRIKEQLVCKLQEQ, the protein stability index amounted to 4.77.
As for QKELQDVGQSLRIKEQRVCKLQEQ, the protein stability index was 4.54.
In the case of QKELQDVGQSLRIKEQMVCKLQEQ, the protein stability index was 4.71.
As to QKELQDVGQSLRIKEQCVCKLQEQ, the protein stability index stood at 4.56.
The result for QKELQDVGQSLRIKEQNVCKLQEQ reads 4.33; that for QKELQDVGQSLRIKEQDVCKLQEQ, 5.55.
Under QKELQDVGQSLRIKEQKVCKLQEQ stands 5.25; under QKELQDVGQSLRIKEQAVCKLQEQ, 4.66.
In the case of QKELQDVGQSLRIKEQQVCKLQEQ, the protein stability index amounted to 4.62.
Under QKELQDVGQSLRIKEQHVCKLQEQ stands 5.02; under QKELQDVGQSLRIKEQSVCKLQEQ, 4.97; under QKELQDVGQSLRIKEQTVCKLQEQ, 4.95.
QKELQDVGQSLRIKEQEVCKLDEQ: the protein stability index was 5.58.
Turning to QKELQDVGQSLRIKEQEVCKLNEQ, the protein stability index amounted to 5.11.
QKELQDVGQSLRIKEQEVCKLIEQ: the protein stability index was determined as 4.69.
With QKELQDVGQSLRIKEQEVCKLEEQ, the protein stability index was determined as 5.4.
In the case of QKELQDVGQSLRIKEQEVCKLWEQ, the protein stability index was found to be 4.83.
Regarding QKELQDVGQSLRIKEQEVCKLYEQ, the protein stability index is 4.67.
The result for QKELQDVGQSLRIKEQEVCKLMEQ reads 4.88; that for QKELQDVGQSLRIKEQEVCKLLEQ, 4.44; that for QKELQDVGQSLRIKEQEVCKLPEQ, 5.27.
Take QKELQDVGQSLRIKEQEVCKLREQ: the protein stability index was found to be 5.07.
The result for QKELQDVGQSLRIKEQEVCKLKEQ reads 5.25; that for QKELQDVGQSLRIKEQEVCKLHEQ, 4.79.
Under QKELQDVGQSLRIKEQEVCKLTEQ stands 5.06; under QKELQDVGQSLRIKEQEVCKLFEQ, 4.5; under QKELQDVGQSLRIKEQEVCKLCEQ, 4.34.
The result for QKELQDVGQSLRIKEQEVCKLVEQ reads 4.4; that for QKELQDVGQSLRIKEQEVTKLQEQ, 5.31.
In the case of QKELQDVGQSLRIKEQEVYKLQEQ, the protein stability index is 5.19.
The result for QKELQDVGQSLRIKEQEVMKLQEQ reads 5.34; that for QKELQDVGQSLRIKEQEVAKLQEQ, 4.79.
With QKELQDVGQSLRIKEQEVPKLQEQ, the protein stability index was found to be 4.9.
For the variant QKELQDVGQSLRIKEQEVKKLQEQ, the protein stability index turned out to be 4.88.
Turning to QKELQDVGQSLRIKEQEVQKLQEQ, the protein stability index came out at 5.61.
Consider QKELQDVGQSLRIKEQEVEKLQEQ, for which the protein stability index was 5.78.
Under QKELQDVGQSLRIKEQEVWKLQEQ stands 4.59.
The result for QKELQDVGQSLRIKEQEVDKLQEQ reads 5.56.
As for QKELQDVGQSLRIKEQEVIKLQEQ, the protein stability index was determined as 4.35.
As for QKELQDVGQSLRIKEQEVSKLQEQ, the protein stability index is 5.53.
The result for QKELQDVGQSLRIKEQEVVKLQEQ reads 5.25.
